Experiment in all cases: ITC; ITC: 10 mM HEPES pH 8.0, 50 mM KCl, 1 mM EDTA, 1 mM BME, 25 C (protein into RNA); EMSA: 10 mM HEPES pH 8.0, 50 mM KCl, 1 mM EDTA, 5 mM BME, room temperature 30
Background: In ITC the heat of successive injections is recorded.

Series [1] has as its target hnRNP A2/B1 RRM1-RRM2 (human, UniProt P22626 12-195). The settings on record: protein: recombinant; tags: N-terminal His6-SUMO removed by Ulp1; single strand.
In series [2] the target is hnRNP A2/B1 RRMs + RGG box (human, UniProt P22626 1-249). To be noted: protein: recombinant; tags: N-terminal His6-SUMO removed by Ulp1; single strand.
In series [3] the target is hnRNP A2/B1 full-length (human, UniProt P22626 1-353). The settings on record: protein: recombinant; tags: prepared with His6(-SUMO) tag or untagged; single strand.
In series [4] the target is hnRNP A2/B1 (12-195) F24A (human, UniProt P22626 12-195, F24A). The settings on record: protein: recombinant; tags: His6-SUMO removed; single strand.
Series [5] addresses hnRNP A2/B1 (12-195) F115A (human, UniProt P22626 12-195, F115A). The settings on record: protein: recombinant; tags: His6-SUMO removed; single strand.
Series [6] deals with hnRNP A2/B1 (12-195) F66A (human, UniProt P22626 12-195, F66A). The settings on record: protein: recombinant; tags: His6-SUMO removed; single strand.
The target of series [7] is hnRNP A2/B1 (12-195) Q19A (human, UniProt P22626 12-195, Q19A). The settings on record: protein: recombinant; tags: His6-SUMO removed; single strand.
Series [8] has as its target hnRNP A2/B1 (12-195) E92A (human, UniProt P22626 12-195, E92A). The settings on record: protein: recombinant; tags: His6-SUMO removed; single strand.
In series [9] the target is hnRNP A2/B1 (12-195) K113A (human, UniProt P22626 12-195, K113A). To be noted: protein: recombinant; tags: His6-SUMO removed; single strand.
In series [10] the target is hnRNP A2/B1 (12-195) E183A (human, UniProt P22626 12-195, E183A). To be noted: protein: recombinant; tags: His6-SUMO removed; single strand.
For series [11], the target named is hnRNP A2/B1 (12-195) K120A (human, UniProt P22626 12-195, K120A). To be noted: protein: recombinant; tags: His6-SUMO removed; single strand.
For series [12], the target named is hnRNP A2/B1 (12-195) H108A (human, UniProt P22626 12-195, H108A). To be noted: protein: recombinant; tags: His6-SUMO removed; single strand.
Series [13] concerns the target hnRNP A2/B1 (12-195) F157A (human, UniProt P22626 12-195, F157A). The settings on record: protein: recombinant; tags: His6-SUMO removed; single strand.
In series [14] the target is hnRNP A2/B1 (12-195) D49A (human, UniProt P22626 12-195, D49A). To be noted: protein: recombinant; tags: His6-SUMO removed; single strand.
Sequence of hnRNP A2/B1 (12-195) D49A (P22626 12-195 D49A): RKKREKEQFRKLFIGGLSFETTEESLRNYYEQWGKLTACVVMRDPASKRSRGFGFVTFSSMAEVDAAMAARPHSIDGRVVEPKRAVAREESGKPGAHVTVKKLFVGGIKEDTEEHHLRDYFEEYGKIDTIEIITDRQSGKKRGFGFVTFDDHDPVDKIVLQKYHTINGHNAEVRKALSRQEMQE

Sequence of hnRNP A2/B1 RRMs + RGG box (P22626 1-249): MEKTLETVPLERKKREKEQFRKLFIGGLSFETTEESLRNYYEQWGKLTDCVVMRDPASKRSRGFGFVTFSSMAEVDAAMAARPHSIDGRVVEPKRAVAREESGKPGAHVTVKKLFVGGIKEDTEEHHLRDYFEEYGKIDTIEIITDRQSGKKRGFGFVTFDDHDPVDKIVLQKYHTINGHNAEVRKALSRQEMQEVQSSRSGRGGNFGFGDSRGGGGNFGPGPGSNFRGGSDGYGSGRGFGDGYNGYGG
Sequence of hnRNP A2/B1 RRM1-RRM2 (P22626 12-195): as the sequence (P22626 12-195 D49A) above, with A38D counted along it
Sequence of hnRNP A2/B1 full-length (P22626 whole entry): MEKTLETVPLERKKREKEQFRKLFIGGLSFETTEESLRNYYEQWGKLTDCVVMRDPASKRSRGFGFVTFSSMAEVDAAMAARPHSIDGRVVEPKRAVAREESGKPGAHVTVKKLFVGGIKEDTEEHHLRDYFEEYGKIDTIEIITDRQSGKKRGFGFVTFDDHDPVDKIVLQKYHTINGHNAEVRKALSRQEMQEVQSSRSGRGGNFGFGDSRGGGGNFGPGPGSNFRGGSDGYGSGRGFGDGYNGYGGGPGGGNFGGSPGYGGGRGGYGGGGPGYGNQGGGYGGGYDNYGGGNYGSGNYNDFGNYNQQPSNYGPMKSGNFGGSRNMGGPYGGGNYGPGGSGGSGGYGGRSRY
Sequence of hnRNP A2/B1 (12-195) F115A (P22626 12-195 F115A): as the sequence (P22626 12-195 D49A) above, with A38D, F104A counted along it
Sequence of hnRNP A2/B1 (12-195) Q19A (P22626 12-195 Q19A): as the sequence (P22626 12-195 D49A) above, with Q8A, A38D counted along it
Sequence of hnRNP A2/B1 (12-195) K113A (P22626 12-195 K113A): as the sequence (P22626 12-195 D49A) above, with A38D, K102A counted along it
Sequence of hnRNP A2/B1 (12-195) H108A (P22626 12-195 H108A): as the sequence (P22626 12-195 D49A) above, with A38D, H97A counted along it
Sequence of hnRNP A2/B1 (12-195) E92A (P22626 12-195 E92A): as the sequence (P22626 12-195 D49A) above, with A38D, E81A counted along it
Sequence of hnRNP A2/B1 (12-195) K120A (P22626 12-195 K120A): as the sequence (P22626 12-195 D49A) above, with A38D, K109A counted along it
Sequence of hnRNP A2/B1 (12-195) F157A (P22626 12-195 F157A): as the sequence (P22626 12-195 D49A) above, with A38D, F146A counted along it
Sequence of hnRNP A2/B1 (12-195) E183A (P22626 12-195 E183A): as the sequence (P22626 12-195 D49A) above, with A38D, E172A counted along it
Sequence of hnRNP A2/B1 (12-195) F24A (P22626 12-195 F24A): as the sequence (P22626 12-195 D49A) above, with F13A, A38D counted along it
Sequence of hnRNP A2/B1 (12-195) F66A (P22626 12-195 F66A): as the sequence (P22626 12-195 D49A) above, with A38D, F55A counted along it

Usually Kd stands for the free concentration of one partner at which half of the binding sites on the other are occupied at equilibrium, for simple one-to-one binding. With AAGAACUAGC (ssRNA) [G3A], the Kd in series [1] came out at 244 ± 25.3 nM.
Turning to AGGACUGC (ssRNA, m6A at position 4) [8mer-m6A], the Kd in series [2] is 505 ± 44.2 nM; in series [1], 461 ± 47.4 nM.
With AAGGACUAGC (ssRNA, m6A at position 5) [10mer-m6A], the results for the Kd in series [2], in [1] and in [3] were 176 ± 25.3 nM, 1320 ± 143 nM and 172 ± 25.6 nM, respectively.
On to AACGACUAGC (ssRNA) [G2C], for which the Kd in series [1] was 699 ± 88.5 nM.
Turning to AUGGACUAGC (ssRNA) [A1U], the Kd in series [1] was 532 ± 66.7 nM.
Take AAGGACUGGC (ssRNA) [A7G]: in series [1], the Kd turned out to be 108 ± 11.5 nM.
Still for that read-out and setting: for ACGGACUAGC (ssRNA) [A1C] the value was 662 ± 54.3 nM.
The same measure, in the same setting: for AAGGACCAGC (ssRNA) [U6C] the value was 184 ± 16.3 nM; for AAGGACUACC (ssRNA) [G8C], 292 ± 44.2 nM.
As for AAAGACUAGC (ssRNA) [G2A], the Kd in [1] turned out to be 316 ± 37 nM.
Take AAGGACUAGC (ssRNA) [10mer]: the Kd in series [4] turned out to be 457 ± 35.5 nM; in [5], 781 ± 87.7 nM; in series [6], 763 ± 10.2 nM; in [7], 440 ± 42 nM; in series [8], 752 ± 85.5 nM; in series [9], 813 ± 1.17 nM. In addition, the Kd in series [10] was 290 ± 47.8 nM; in series [2], 26.5 ± 1.8 nM; in series [1] it was 115 ± 11.5 nM; in series [3], 103 ± 8.93 nM; in series [11] it was 413 ± 50.5 nM; in [12], 167 ± 19.2 nM. For the same molecule, the Kd in [13] was found to be 535 ± 97.1 nM; in series [14], 562 ± 69.4 nM.
Turning to AAGGACUAUC (ssRNA) [G8U], the Kd in series [1] stood at 272 ± 30.7 nM.
Turning to AGGACUGC (ssRNA) [8mer], the results for the Kd in series [2] and in [1] were 465 ± 53.2 nM and 276 ± 27.5 nM, respectively.
For the molecule AAUGACUAGC (ssRNA) [G2U], the Kd in series [1] came to 581 ± 58.1 nM.
Same read-out and setting: for AAGGACAAGC (ssRNA) [U6A] the value was 204 ± 19.9 nM; for AAGCACUAGC (ssRNA) [G3C], 952.4 ± 1.14 nM; for AAGGACUAAC (ssRNA) [G8A], 107 ± 16.2 nM.

The record behind these values is paper PMC5789076, “Molecular basis for the specific and multivariant recognitions of RNA substrates by human hnRNP A2/B1”.
